Assay results published in patent US20020123623.

System: T1, Ntlim1 (effector plasmid, BY-2 protoplasts) (Nicotiana tabacum)
T1 sequence: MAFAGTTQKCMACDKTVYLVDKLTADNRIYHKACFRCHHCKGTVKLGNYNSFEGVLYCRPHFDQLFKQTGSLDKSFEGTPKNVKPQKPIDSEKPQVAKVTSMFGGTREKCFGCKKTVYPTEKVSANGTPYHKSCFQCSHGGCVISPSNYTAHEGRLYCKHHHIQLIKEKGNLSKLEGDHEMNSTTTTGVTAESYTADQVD
Assay: cell_activity
Settings: about three times GUS expression vs reporter alone in tobacco BY-2 protoplasts; direct binding not measured

Sequence: CCACTTGAGTAC (double strand)
- activity: 3 fold
